For assay [1], the system named is Trichinella positive serum (antibodies against Trichinella). The experiment in a line: FPA discrimination between Trichinella positive and Trichinella negative serum. The assay is classed as binding. The following applies: mP positive serum minus mP negative serum; tracer 5 nM; buffer differs per tracer as listed in Table 2. Here is the method: Table 2 depicts for some of the Trichinella peptides their ability to discriminate between a Trichinella positive and a Trichinella negative serum sample using fluorescence polarisation assay (FPA).
FPA analysis of the tracers shown in Table 2 was performed by the following procedure. A […] aliquot of the positive or negative serum was diluted with […] of buffer (PBS with detergent as indicated in Table 2) in a single well of a black coloured 96-well plate. The plate was incubated for 2 minutes at room temperature on an orbital shaker set at 1350 rpm and then incubated for another minute without shaking. Blank measurement of the sample was then performed by reading the fluorescence polarisation in a fluorescence reader (Safire2, Tecan, Switzerland) with excitation and emission wavelength set at 470 nm and 520 nm, respectively. Then, […] tracer was added to the reaction mixture to a final concentration of 5 nM and the plate was incubated at room temperature with shaking (1350 rpm) for 15 minutes and then for an additional minute without shaking. Then the plate was measured.
The mP values were calculated according to the following formula: […]
The ΔmP values were obtained by subtracting the mP values of the negative serum from the positive sera:
ΔmP=mPpositive serum=mPnegative serum

In assay [2] the test system is Trichinella positive sera (antibodies against Trichinella). The experiment in a line: ELISA discrimination between Trichinella positive and negative serum using SS2 peptides. The assay is classed as binding, pig. To be noted: peptide-coated plate; serial two fold dilutions of serum; read at 405 nm; FIGS. 8a and b. Here is the method:
FIGS. 8a and b show the results of 2 of the preferred SS2 peptides (SEQ IDs NO 7 and 8) tested in ELISA assays. […] Serial two fold dilutions of the serum sample were tested.
Single wells of a 96-well microtitre plate were coated with the SS2 peptides ([…]) at a concentration of […] in carbonate buffer 0.1 M (pH 9.5) overnight at 4° C. The plate was washed 4 times with 0.05% Tween 80 and then blocked with a PBS buffer containing 2% I-block and 0.1% Tween 20 for 90 minutes at 25° C.±3° C. Pig sera were diluted 50-fold in phosphate buffered saline and serial 2-fold dilutions were incubated in the microtitre plate with shaking (500 rpm) for 2 hours at room temperature. The plates were washed 4 times with 0.05% Tween 80 Detection of the bound antibodies was performed by incubation with a goat anti-pig IgG(Fc)-POD conjugate (Bethyl Laboratories, USA) at a concentration of 1.3 ug/ml for 1 h at RT with shaking (500 rpm). Following four more washes, 2′-azino-bis(3-ethylbenzthiazoline-6-sulphonic acid) (ABTS) substrate solution was added and incubated for 30 minutes, colour development was measured in a ELISA reader (Tecan, Switzerland) at a wavelength of 405 nm.
For orientation: In an ELISA, binding on a coated surface is turned into a signal by an enzyme label.

The target in assay [3] is 5-CF-Trp-Gly(9)-FLAG. The experiment in a line: fluorescence polarisation assay; tracer 2.7 nM, 1 molar equivalent of antibody. On the technique in general: In fluorescence polarisation assays a small probe gives low polarisation when free and higher when bound to something large.
The target of assay [4] is 5-CF-Trp(2)-Gly(9)-FLAG. The assay is described as above.
The target in assay [5] is 5-CF-Pro-Gly(9)-FLAG. The assay is described as above.
The target of assay [6] is 5-CF-Trp-Gly(9)-FLAG. The assay is described as follows: fluorescence polarisation assay; tracer 2.7 nM, 3 molar equivalents of antibody.
The target in assay [7] is 5-CF-Trp(2)-Gly(9)-FLAG. The assay is described as above.
Assay [8] deals with 5-CF-Pro-Gly(9)-FLAG. Described as above.
In assay [9] the target is 5-CF-Trp-Gly(9)-FLAG. The assay is described as follows: fluorescence polarisation assay; tracer 8.1 nM, 10 molar equivalents of antibody.
In assay [10] the target is 5-CF-Trp(2)-Gly(9)-FLAG. Described as above.
Assay [11] addresses 5-CF-Pro-Gly(9)-FLAG. Described as above.
The target in assay [12] is 5-CF-Trp-Gly(9)-FLAG. The experiment in a line: fluorescence polarisation assay; tracer 8.1 nM, 1 molar equivalent of antibody.
Assay [13] addresses 5-CF-Trp(2)-Gly(9)-FLAG. The description is as above.
Assay [14] concerns the target 5-CF-Pro-Gly(9)-FLAG. The assay is described as above.
In assay [15] the target is 5-CF-Trp-Gly(9)-FLAG. The assay is described as follows: fluorescence polarisation assay; tracer 2.7 nM, 10 molar equivalents of antibody.
The target of assay [16] is 5-CF-Trp(2)-Gly(9)-FLAG. Described as above.
For assay [17], the target named is 5-CF-Pro-Gly(9)-FLAG. Described as above.
Assay [18] concerns the target 5-CF-Trp-Gly(9)-FLAG. The experiment in a line: fluorescence polarisation assay; tracer 8.1 nM, 3 molar equivalents of antibody.
The target in assay [19] is 5-CF-Trp(2)-Gly(9)-FLAG. The description is as above.
Assay [20] has as its target 5-CF-Pro-Gly(9)-FLAG. Described as above.

We go through five substances from patent US20100190182A1, “DIAGNOSTIC COMPOSITION AND METHOD FOR THE DETECTION OF A TRICHINELLA INFECTION” (priority 2007, published 2010).

Take “LSTASRPTNP YTGSRPTSPS SGSRP (LSTASRPTNPYTGSRPTSPSSGSRP; listed as Trichinella spiralis) [SEQ ID NO 7, peptide of Trichinella spiralis newborn larvae-specific protein SS2]”: the ΔmP in [1] is listed as 20 mP. Moreover, in [2], the “ability to discriminate between negative and positive sera in ELISA” value was “able to discriminate between negative and positive sera”.

For the substance “PTYPSSGSRP TYPSSGSRPT YPYTG (PTYPSSGSRPTYPSSGSRPTYPYTG; listed as Trichinella spiralis) [SEQ ID NO 8, peptide of Trichinella spiralis newborn larvae-specific protein SS2]”, the ΔmP in assay [1] was 66 mP. The “ability to discriminate between negative and positive sera in ELISA” value in assay [2] is “able to discriminate between negative and positive sera”.

In [1], “VVTIFRKNGK TTEVLSL (VVTIFRKNGKTTEVLSL; listed as Trichinella spiralis) [SEQ ID NO 24, peptide of Trichinella spiralis 53 kDa excretory/secretory antigen]” had a ΔmP of 57 mP.

In the case of “VVYSKTSSSR LEMYGSF (VVYSKTSSSRLEMYGSF; listed as Trichinella spiralis) [SEQ ID NO 16, peptide of Trichinella spiralis 43 kDa secreted glycoprotein]”, the ΔmP in [1] is on record as 20 mP.

For the substance “anti-FLAG M2 monoclonal antibody (Sigma, Switzerland)”, the ΔmP in the assay with 5-CF-Trp-Gly(9)-FLAG [3] was 9 mP; with 5-CF-Trp(2)-Gly(9)-FLAG [4], 5 mP; with 5-CF-Pro-Gly(9)-FLAG [5], 5 mP; with 5-CF-Trp-Gly(9)-FLAG [6], 27 mP; with 5-CF-Trp(2)-Gly(9)-FLAG [7] it was 35 mP; with 5-CF-Pro-Gly(9)-FLAG [8] it was 15 mP. Moreover, the ΔmP with 5-CF-Trp-Gly(9)-FLAG [9] was 86 mP; with 5-CF-Trp(2)-Gly(9)-FLAG [10], 124 mP; with 5-CF-Pro-Gly(9)-FLAG [11] it was 62 mP; with 5-CF-Trp-Gly(9)-FLAG [12], 19 mP; with 5-CF-Trp(2)-Gly(9)-FLAG [13], 37 mP; with 5-CF-Pro-Gly(9)-FLAG [14], 14 mP. For the same substance, the ΔmP with 5-CF-Trp-Gly(9)-FLAG [15] was found to be 55 mP; in the assay with 5-CF-Trp(2)-Gly(9)-FLAG [16], 97 mP; with 5-CF-Pro-Gly(9)-FLAG [17] it was 33 mP; with 5-CF-Trp-Gly(9)-FLAG [18] it was 50 mP; in the assay with 5-CF-Trp(2)-Gly(9)-FLAG [19] it was 78 mP; with 5-CF-Pro-Gly(9)-FLAG [20], 33 mP.
